Reference: patent publication US20130209454A1

Tests used:
Assay in all cases: cell-based or functional assay
[1] = molecular target: HIV-1 Env of strain 1006_11_C3_1601 (HIV-1)
[2] = molecular target: HIV-1 Env of strain 3415.v1.c1 (HIV-1)
[3] = molecular target: HIV-1 Env of strain 3817.v2.c59 (HIV-1)
[4] = molecular target: HIV-1 Env of strain 6480.v4.c25 (HIV-1)
[5] = molecular target: HIV-1 Env of strain 6535.3 (HIV-1)
[6] = molecular target: HIV-1 Env of strain C3347.c11 (HIV-1)
[7] = molecular target: HIV-1 Env of strain CAP210.2.00.E8 (HIV-1)
[8] = molecular target: HIV-1 Env of strain CNE17 (HIV-1)
[9] = molecular target: HIV-1 Env of strain CNE30 (HIV-1)
[10] = molecular target: HIV-1 Env of strain Ce0682_E4 (HIV-1)
[11] = molecular target: HIV-1 Env of strain Ce2010_F5 (HIV-1)
[12] = molecular target: HIV-1 Env of strain Du172.17 (HIV-1)
[13] = molecular target: HIV-1 Env of strain Q259.d2.17 (HIV-1)
[14] = molecular target: HIV-1 Env of strain Q769.d22 (HIV-1)
[15] = molecular target: HIV-1 Env of strain Q842.d12 (HIV-1)
[16] = molecular target: HIV-1 Env of strain REJO4541.67 (HIV-1)
[17] = molecular target: HIV-1 Env of strain T250-4 (HIV-1)
[18] = molecular target: HIV-1 Env of strain T278-50 (HIV-1)
[19] = molecular target: HIV-1 Env of strain WEAU_d15_410_787 (HIV-1)
[20] = molecular target: HIV-1 Env of strain X1254_c3 (HIV-1)
[21] = molecular target: HIV-1 Env of strain X2131_C1_B5 (HIV-1)
[22] = molecular target: HIV-1 Env of strain ZM109F.PB4 (HIV-1)
[23] = molecular target: HIV-1 Env of strain ZM214M.PL15 (HIV-1)
[24] = molecular target: HIV-1 Env of strain ZM233M.PB6 (HIV-1)
[25] = molecular target: HIV-1 Env of strain TROJO4551.58 (HIV-1)
[26] = molecular target: HIV-1 strain 0815.v3.c3 envelope (gp120) (HIV-1)
[27] = molecular target: HIV-1 strain 211-9 envelope (gp120) (HIV-1)
[28] = molecular target: HIV-1 strain 3016.v5.c45 envelope (gp120) (HIV-1)
[29] = molecular target: HIV-1 strain 3103.v3.c10 envelope (gp120) (HIV-1)
[30] = molecular target: HIV-1 strain 6540.v4.c1 envelope (gp120) (HIV-1)
[31] = molecular target: HIV-1 strain 6811.v7.c18 envelope (gp120) (HIV-1)
[32] = molecular target: HIV-1 strain AC10.0.29 envelope (gp120) (HIV-1)
[33] = molecular target: HIV-1 strain C2101.c01 envelope (gp120) (HIV-1)
[34] = molecular target: HIV-1 strain CAAN5342.A2 envelope (gp120) (HIV-1)
[35] = molecular target: HIV-1 strain CNE17 envelope (gp120) (HIV-1)
[36] = molecular target: HIV-1 strain CNE21 envelope (gp120) (HIV-1)
[37] = molecular target: HIV-1 strain CNE30 envelope (gp120) (HIV-1)
[38] = molecular target: HIV-1 strain Ce1176_A3 envelope (gp120) (HIV-1)
[39] = molecular target: HIV-1 strain Ce2010_F5 envelope (gp120) (HIV-1)
[40] = molecular target: HIV-1 strain Ce2060_G9 envelope (gp120) (HIV-1)
[41] = molecular target: HIV-1 strain PVO.4 envelope (gp120) (HIV-1)
[42] = molecular target: HIV-1 strain Q769.d22 envelope (gp120) (HIV-1)
[43] = molecular target: HIV-1 strain Q842.d12 envelope (gp120) (HIV-1)
[44] = molecular target: HIV-1 strain QH0692.42 envelope (gp120) (HIV-1)
[45] = molecular target: HIV-1 strain R1166.c01 envelope (gp120) (HIV-1)
[46] = molecular target: HIV-1 strain T278-50 envelope (gp120) (HIV-1)
[47] = molecular target: HIV-1 strain TRJO4551.58 envelope (gp120) (HIV-1)
[48] = molecular target: HIV-1 strain X1193_c1 envelope (gp120) (HIV-1)
[49] = molecular target: HIV-1 strain ZM214M.PL15 envelope (gp120) (HIV-1)
[50] = molecular target: HIV-1 strain ZM233M.PB6 envelope (gp120) (HIV-1)

B1: NIH45-46^G54W (antibody, V domains shown)
VH: QVRLSQSGGQMKKPGESMRLSCRASGYEFLNCPINWIRLAPGRRPEWMGWLKPRWGAVNYARKFQGRVTMTRDVYSDTAFLELRSLTSDDTAVYFCTRGKYCTARDYYNWDFEHWGRGAPVTVSS
VL: EIVLTQSPATLSLSPGETAIISCRTSQSGSLAWYQQRPGQAPRLVIYSGSTRAAGIPDRFSGSRWGADYNLSISNLESGDFGVYYCQQYEFFGQGTKVQVDI
[1]
  IC50, pseudovirus neutralization: 0.001 µg/mL
[2]
  IC50, pseudovirus neutralization: 0.001 µg/mL
[3]
  IC50, pseudovirus neutralization: > 50 µg/mL
[4]
  IC50, pseudovirus neutralization: 0.004 µg/mL
[5]
  IC50, pseudovirus neutralization: 0.03 µg/mL
[6]
  IC50, pseudovirus neutralization: 0.001 µg/mL
[7]
  IC50, pseudovirus neutralization: > 50 µg/mL
[8]
  IC50, pseudovirus neutralization: 0.036 µg/mL
[9]
  IC50, pseudovirus neutralization: 0.052 µg/mL
[10]
  IC50, pseudovirus neutralization: 0.01 µg/mL
[11]
  IC50, pseudovirus neutralization: 0.038 µg/mL
[12]
  IC50, pseudovirus neutralization: 3.65 µg/mL
[13]
  IC50, pseudovirus neutralization: 0.001 µg/mL
[14]
  IC50, pseudovirus neutralization: 0.001 µg/mL
[15]
  IC50, pseudovirus neutralization: 0.005 µg/mL
[16]
  IC50, pseudovirus neutralization: 0.002 µg/mL
[17]
  IC50, pseudovirus neutralization: 1.33 µg/mL
[18]
  IC50, pseudovirus neutralization: > 50 µg/mL
[19]
  IC50, pseudovirus neutralization: 0.001 µg/mL
[20]
  IC50, pseudovirus neutralization: 0.002 µg/mL
[21]
  IC50, pseudovirus neutralization: 0.05 µg/mL
[22]
  IC50, pseudovirus neutralization: 0.002 µg/mL
[23]
  IC50, pseudovirus neutralization: 0.03 µg/mL
[24]
  IC50, pseudovirus neutralization: 0.02 µg/mL

B2: NIH45-46^G54W IgG (antibody, name in Kabat numbering, V domains shown)
VH: B1 VH
VL: B1 VL
[1]
  neutralization IC50: < 0.001 µg/mL
[2]
  neutralization IC50: < 0.001 µg/mL
[3]
  neutralization IC50: > 50 µg/mL
[4]
  neutralization IC50: 0.004 µg/mL
[5]
  neutralization IC50: 0.03 µg/mL
[6]
  neutralization IC50: < 0.001 µg/mL
[7]
  neutralization IC50: > 50 µg/mL
[8]
  neutralization IC50: 0.036 µg/mL
[9]
  neutralization IC50: 0.052 µg/mL
[10]
  neutralization IC50: 0.01 µg/mL
[11]
  neutralization IC50: 0.038 µg/mL
[12]
  neutralization IC50: 3.65 µg/mL
[13]
  neutralization IC50: < 0.001 µg/mL
[14]
  neutralization IC50: < 0.001 µg/mL
[15]
  neutralization IC50: 0.005 µg/mL
[16]
  neutralization IC50: 0.002 µg/mL
[17]
  neutralization IC50: 1.33 µg/mL
[18]
  neutralization IC50: > 50 µg/mL
[25]
  neutralization IC50: 0.01 µg/mL
[19]
  neutralization IC50: < 0.001 µg/mL
[20]
  neutralization IC50: 0.002 µg/mL
[21]
  neutralization IC50: 0.05 µg/mL
[22]
  neutralization IC50: 0.002 µg/mL
[23]
  neutralization IC50: 0.03 µg/mL
[24]
  neutralization IC50: 0.02 µg/mL
[26]
  neutralization IC80: 0.003 µg/mL
[27]
  neutralization IC80: > 50 µg/mL
[28]
  neutralization IC80: 15.4 µg/mL
[29]
  neutralization IC80: 0.56 µg/mL
[30]
  neutralization IC80: > 50 µg/mL
[31]
  neutralization IC80: 0.033 µg/mL
[32]
  neutralization IC80: 0.63 µg/mL
[33]
  neutralization IC80: 0.17 µg/mL
[34]
  neutralization IC80: 0.21 µg/mL
[35]
  neutralization IC80: 0.127 µg/mL
[36]
  neutralization IC80: 0.16 µg/mL
[37]
  neutralization IC80: 0.196 µg/mL
[38]
  neutralization IC80: 0.45 µg/mL
[39]
  neutralization IC80: 0.187 µg/mL
[40]
  neutralization IC80: 0.042 µg/mL
[41]
  neutralization IC80: 0.16 µg/mL
[42]
  neutralization IC80: 0.009 µg/mL
[43]
  neutralization IC80: 0.025 µg/mL
[44]
  neutralization IC80: 1.12 µg/mL
[45]
  neutralization IC80: 0.51 µg/mL
[46]
  neutralization IC80: > 50 µg/mL
[47]
  neutralization IC80: 0.05 µg/mL
[48]
  neutralization IC80: 0.009 µg/mL
[49]
  neutralization IC80: 0.15 µg/mL
[50]
  neutralization IC80: 0.11 µg/mL
